In patent US20040202655A1 (published 2004):
Positions count from the first letter of the chain named. Where “and” joins values, the source holds several entries; their conditions need not be identical. Equal entries are not always repeated.

B1: PINT-7A2 IgG (antibody, V domains shown)
VH: GVQLVQSGAEVKKPGESLTISCKGSGYNFFNYWIGWVRQMPGKGLEWMGIIYPTDSDTRYSPSFQGQVTISVDKSISTAYLQWSSLKASDTAMYYCARSIRYCPGGRCYSGYYGMDVWGQGTMVTVSS
VL: SELTQDPAVSVALGQTVRITCQGDSLRSYYTNWFQQKPGQAPLLVVYAKNKRPSGIPDRFSGSSSGNTASLTITGAQAEDEADYYCNSRDSSGNHVVFGGGTKLTVLG
B2: PINT-7A6 IgG (antibody, V domains shown)
VH: B1 VH with G1E, M123L
VL: B1 VL
B3: PINT-11A1 IgG (antibody, V domains shown)
VH: EVQLVESGGGVVQPGRSLRLSCAASGFTFSDFAMHWVRQIPGKGLEWLSGLRHDGSTAYYAGSVKGRFTISRDNSRNTVYLQMNSLRAEDTATYYCVTGSGSSGPHAFPVWGKGTLVTVSS
VL: not shown
B4: PINT-11A2 IgG (antibody, V domains shown)
VH: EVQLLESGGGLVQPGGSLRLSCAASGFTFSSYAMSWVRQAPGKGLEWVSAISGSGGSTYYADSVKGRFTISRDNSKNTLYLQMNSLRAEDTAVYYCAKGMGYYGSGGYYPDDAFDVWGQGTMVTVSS
VL: LSSELTQDPDVSMALGQTVTISCRGDSLKRFYASWYHQKPGQAPVLVFYGKENRPSGIPDRFSGSDSGDTASLTITGAQAEDEGDYYCHTQDTSARQYVFGSGTKVTVLG
B5: PINT-11A3 IgG (antibody, V domains shown)
VH: EVQLVQSGAEVKKPGASVKVSCKASGYSFTNYGLNWVRQAPGQGLEWMGWISPYTGYTNYAQKFQGRVTMTTDKSTSTAYMDLRSLRSDDTAVYYCAREIFSHCTGGSCYPFDSWGRGTLVTVSS
VL: LSSELTQDPAVSVALGQTVRITCQGDSLRNYYASWYQQKPGQAPLLVMFGKNNRPSEIPGRFSGSSSGNTASLTITGAQAEDEADYYCNSRDRNSHQWVFGGGTKLTVLG
B6: PINT-12A2 IgG (antibody, V domains shown)
VH: B5 VH with R117Q
VL: B5 VL with R93S
B7: PINT-11A5 IgG (antibody, V domains shown)
VH: B5 VH with E1Q, R117K
VL: LSSELTQDPAVSVALGQTVRITCQGDSLRSYYASWYQQKPGQAPVLVIYGKNNRPSGIPDRFSGSSSGNTASLTITGAQAEDEADYYCNSRDSSGNHHWVFGGGTKVTVLG
B8: PINT-12A4 IgG (antibody, V domains shown)
VH: B5 VH with E1Q, L120M
VL: B7 VL with H97L, H98N, K106Q, V107L, G111S
B9: PINT-11A7 IgG (antibody, V domains shown)
VH: B5 VH with N35D, L120M
VL: LSSELTQDPAVSVALGQTVRITCQGDSLRSYYASWYQQKPGQAPVLVIYGKNNRPSGIPDRFSGSSSGNTASLTITGAQAEDEADYYCNSRDSSGNHRNWVFGGGTKVTVLG
B10: PINT-11A11 IgG (antibody, V domains shown)
VH: QVQLVESGGGLVKPGGSLRLSCAASGFTFSSHTMNWVRQAQGKGLEWVSSISGSGRYIYYSDSVKGRFTISRDAAKNSLYLQMNNLRAEDTAVYYCTRAKFGDYLFDSWGQGTLVTVSS
VL: LNFMLTQPHSVSQSPGKTVTISCTRSSGRIASNFVQWYQQRPGSAPTTVIYEDNRRPSGVPDRFSGSIDSSSNSASLTISGLKTEDEADYYCQSYDARYQVFGTGTKVTVLG
B11: PINT-11A12 IgG (antibody, V domains shown)
VH: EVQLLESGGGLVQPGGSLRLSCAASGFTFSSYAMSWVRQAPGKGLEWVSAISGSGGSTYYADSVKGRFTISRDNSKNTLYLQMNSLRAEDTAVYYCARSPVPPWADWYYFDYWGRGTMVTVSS
VL: AQAVLTQPSSVSGAPGQRVTISCTGSRSNFGAGYDVHWYQQFPGTAPKLLIYGNTNRPSGVPDRFSGSRSGTSASLAITGLQAEDEADYYCQSYDSNLSGSVFGGGTKVTVLG
B12: PINT-12A1 IgG (antibody, V domains shown)
VH: B5 VH with R117K
VL: LSSELTQDPAVSVALGQTVRITCQGDSLRNYYASWYQQKPGQAPVLVLYSKNSRPSGVPDRFSGSSSGTTASLTISGAQAEDEADYYCNSRDTSGDLRWVFGGGTKLTVLG
notes: see recheck
B13: PINT-12A3 IgG (antibody, V domains shown)
VH: B5 VH with E1Q, T72S, V93I, T105S, S114Y, R117Q
VL: B9 VL with V45L, K51R, G95T, R98G, K107Q, V108L, G112S

Columns and labels:
[1] = molecular target: T1, human IGF-I receptor on cells (NIH-3T3 fibroblasts expressing the human IGF-IR; DU145 cells) (human, UniProt P08069 31-1367); assay: cell-based or functional assay
[2] = molecular target: T1, human IGF-I receptor on cells (NIH-3T3 …); assay: cell-based or functional assay; remark: listed apart in the source
[3] = molecular target: T1, human IGF-I receptor on cells (NIH-3T3 …); assay: competition with 125I-IGF-I, NIH-3T3 cells expressing human IGF-1R, 4 C
Protocol: (§1) NIH-3T3 fibroblasts expressing the human IGF-IR, or NIH-3T3 non-transfected fibroblasts were plated at 6×10⁴ cells per well in 0.5 ml of DMEM (Gibco, #11960-044) supplemented with 10% heat-inactivated fetal bovine serum (Gibco, #16140-071), 2 mM L-glutamine (Gibco, #25030-081) and 50 U/ml penicillin-streptomycin (Gibco, #15070-063). The NIH-3T3 cells were used as a control for non-specific cell binding. The plates were incubated at 37° C./5% CO₂ for 24 hours to allow cells to attach and become 80-90% confluent. The overlying media was then replaced with 0.5 ml per well of starvation media consisting of DMEM, 20 mM Hepes (Gibco, #15630-080), 2 mM L-glutamine and 0.1% bovine serum albumin (Equitech-Bio, protease-free, Kerrville, Tex.) and the plates were incubated at 37° C., 5% CO₂ overnight. All subsequent binding steps were conducted at 4° C. Test antibodies were diluted in ice-cold starvation media to the desired final concentration and 100 μl added per well. All samples were performed in duplicate. […] Cell monolayers were washed three times with ice-cold PBS (Gibco, #14040-117) and cells and associated radioactivity were released by adding 0.5ml 2% sodium dodecyl sulfate/0.2N NaOH to each well and heating the plates at 60° C. for 15 minutes. Lysate associated radioactivity was quantitated by gamma scintillation spectrometry. Alternatively, the same described experiment was performed with preincubation with the test antibodies at 37° C. for 10 minutes, followed by 10 minutes incubation at 37° C. after addition of 400 pM of the iodinated radioligand.

[4] = molecular target: T1, human IGF-I receptor on cells (NIH-3T3 …); assay: competition with 125I-IGF-II, NIH-3T3 cells expressing human IGF-1R, 4 C
Protocol: as §1

[5] = molecular target: T2, human insulin receptor on CHO cells (human, UniProt P06213 28-1382); assay: competition with 125I-insulin, CHO cells expressing human insulin receptor, 4 C
T2 construct: whole, on cells
Protocol: The Parental 3T3 cells were used as a control for background radioactivity. We then incubated the plates at 37° C., 5% CO₂ for 24 hours to allow cells to attach and become 80-90% confluent. The media was decanted from the plates, replaced with 500 μl per well of starvation or assay media consisting of IMDM, 20 mM Hepes (Gibco, #15630-080), 2 mM L-glutamine and 0.1% bovine serum albumin (Equitech-Bio, protease-free, Kerryville, Tex.) and the plates were incubated at 37° C., 5% CO₂ overnight. The antibodies were diluted in cold assay media to the desired final concentration and added 100 μl per well. All samples were performed in duplicate. The plates were incubated at 4° C. for 30 minutes. […] The plates were incubated for 2.5 hours at 4° C., then aspirated the media and washed 3× with cold DPBS (Gibco, #14040-117). The cells were lysed by adding 500 μl 0.2 NaOH, 2% SDS and incubating the plates for 15 minutes at 60° C. The samples were transferred to 12×75 tubes (Sarsted, #55.476, 5 ml) and the signal read on a gamma counter.

Binder | IC50 (nM), IGF-1 dependent proliferation of NIH-3T3/hIGF-1R cells (BrdU ELISA) [1] | Antagonist Assay IC50 (nM), IGF-I-induced IGF-1R tyrosine phosphorylation (ELISA) [2] | IC50 [3] | IC50 [4] | IC50 [5]
B1 | 5 nM and 3.8 nM | 2.62 nM and 1.97 nM | 0.5 nM and 1.3 nM | < 0.8 nM and 0.4 nM | –
B2 | > 70 nM | 9.7 nM and 8.5 nM | 1 nM and 0.8 nM | < 0.8 nM and 0.3 nM | –
B3 | 5.4 nM and 3.3 nM | 5.4 nM and 7.4 nM | 8 nM and 10 nM | > 75 nM | –
B4 | > 70 nM | > 40 nM | > 100 nM | – | –
B5 | 32.1 nM and > 70 nM | – | 1.1 nM and 1.2 nM | – | –
B6 | > 70 nM | > 40 nM | 1 nM and 0.7 nM | – | > 200 nM
B7 | > 70 nM | > 40 nM | 1.2 nM and < 0.4 nM and 0.75 nM | – | > 200 nM
B8 | > 70 nM | > 40 nM | > 50 nM | – | > 200 nM
B9 | > 70 nM | 26.6 nM and > 40 nM and 25.5 nM | 1 nM and 1.4 nM | – | > 200 nM
B10 | 16.4 nM and 25 nM | 14.9 nM and 10.6 nM | 1.6 nM | – | > 200 nM
B11 | > 70 nM | > 40 nM | – | – | > 200 nM
B12 | > 70 nM | > 40 nM | 1.5 nM and 1.2 nM | – | > 200 nM
B13 | > 70 nM | > 40 nM | 1.5 nM and 1.7 nM | – | > 200 nM
